Positions count from the first letter of the chain named. Numbers in names are those of the source. Like-named read-outs stand apart in the source and are kept apart here.

The term stoichiometry N denotes the number of molecules, sites or subunits per partner or assembly.

Series [1] deals with the molecule itself. Nature of the series: cross-linking.
Series [2] deals with the molecule itself. Briefly: cross-linking. The source holds these as a separate data set.

B1: Myc-hFis1[32-152]GGIDGG (domain or fragment, human, UniProt Q9Y3D6 32-152, looked up)
chain: KSTQFEYAWCLVRSKYNDDIRKGIVLLEELLPGGIDGGRDYVFYLAVGNYRLKEYEKALKYVRGLLQTEPQNNQAKELERLIDKAMKKDGLVGMAIVGGMALGVAGLAGLIGLAVSKSKS
For B1, in series [1], the “fold decrease in dimer formation against Myc-hFis1[32-152]” value is about 3 fold.

B2: Fis/OMP (other, UniProt Q9Y3D6 1-120, looked up)
chain: MEAVLNELVSVEDLLKFEKKFQSEKAAGSVSKSTQFEYAWCLVRSKYNDDIRKGIVLLEELLPKGSKEEQRDYVFYLAVGNYRLKEYEKALKYVRGLLQTEPQNNQAKELERLIDKAMKKPIFMVLVPVFALTMVAAWAFMRYRQQL
Regarding B2, the “stoichiometry N” value in series [1] is 2.

B3: Myc-hFis1[92-152] (domain or fragment, human, UniProt Q9Y3D6 92-152, looked up)
chain: KYVRGLLQTEPQNNQAKELERLIDKAMKKDGLVGMAIVGGMALGVAGLAGLIGLAVSKSKS
Take B3: the “stoichiometry N” value in series [1] was determined as 2.

B4: Myc-hFis1[32-152]Δα5 (domain or fragment, human, UniProt Q9Y3D6 32-152, looked up)
chain: KSTQFEYAWCLVRSKYNDDIRKGIVLLEELLPKGSKEEQRDYVFYLAVGNYRLKENQAKELERLIDKAMKKDGLVGMAIVGGMALGVAGLAGLIGLAVSKSKS
B4: in series [1], the “fold decrease in dimer formation against Myc-hFis1[32-152]” value is about 8 fold.

B5: Myc-hFis1[32-152] (domain or fragment, human, UniProt Q9Y3D6 32-152, looked up)
chain: KSTQFEYAWCLVRSKYNDDIRKGIVLLEELLPKGSKEEQRDYVFYLAVGNYRLKEYEKALKYVRGLLQTEPQNNQAKELERLIDKAMKKDGLVGMAIVGGMALGVAGLAGLIGLAVSKSKS
Turning to B5, the “stoichiometry N” value in series [2] was 4; in series [1], 5.

B6: Myc-hFis1[32-152]-Y87A (domain or fragment, human, UniProt Q9Y3D6 32-152, looked up)
chain: B5 chain with Y56A
Regarding B6, in series [1], the “stoichiometry N” value was found to be 2.

The values are drawn from PMC2605612 (Experimental cell research, 2008).
